The source of these data is patent publication US20230295310A1 (ABCELLERA BIOLOGICS, published 2023).

The assay addresses T1, cynomolgus monkey CD3 (cynomolgus monkey, UniProt Q95LI5 22-198; Q95LI8 22-171; Q95LI7 23-181).
T1 construct: whole, on cells; CD3 on purified cynomolgus monkey CD3 pan T cells; also called cyno CD3; CD3 on cyno primary T cells
Description: flow cytometry, cyno primary T cells. Summed up: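 Cells expressing CD3 were exposed to each antibody diluted to 25 nM for 30 minutes at 4° C, then analysed by flow cytometry. The median fluorescence signal was expressed relative to an isotype control, and a value of at least 10 indicated binding.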
On the technique in general: A flow cytometer gives signals particle by particle.

T1 sequence (Q95LI5 22-198, chain 1 of 3): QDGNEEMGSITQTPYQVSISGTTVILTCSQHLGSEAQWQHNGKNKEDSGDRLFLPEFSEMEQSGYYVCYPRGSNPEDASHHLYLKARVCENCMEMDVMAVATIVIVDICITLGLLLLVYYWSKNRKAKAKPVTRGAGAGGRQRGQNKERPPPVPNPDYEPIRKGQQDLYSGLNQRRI
T1 sequence (Q95LI8 22-171, chain 2 of 3): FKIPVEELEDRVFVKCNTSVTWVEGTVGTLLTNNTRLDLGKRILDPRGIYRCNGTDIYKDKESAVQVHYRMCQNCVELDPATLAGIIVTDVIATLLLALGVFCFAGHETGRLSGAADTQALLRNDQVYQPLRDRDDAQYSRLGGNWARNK
T1 sequence (Q95LI7 23-181, chain 3 of 3): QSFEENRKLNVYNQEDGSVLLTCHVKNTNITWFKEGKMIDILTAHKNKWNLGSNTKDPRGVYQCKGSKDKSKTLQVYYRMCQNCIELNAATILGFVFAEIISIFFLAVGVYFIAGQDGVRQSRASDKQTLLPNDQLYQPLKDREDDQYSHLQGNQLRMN

B1: mAb 320 (antibody, V domains shown)
VH: QVQLVESGGGVVQPGRSLRLSCAASGFTFRSYGMHWVRQAPGKGLEWVAIIWYDGSKKYYADSVKGRFTISRDNSKNILYLQMNSLRAEDTAVYYCARQEFNWNDGGYYYMDVWGKGTTVTVSS
VL: DIQLTQSPSFLSASVGDRVTITCRASQGISSYLDWCQQKPGKAPKLLIYAASTLQSGVPSRFSGSGSGTEFTLTISSLQPEDFATYYCQQLDNYPPTFGGGTKVEIK
notes: VH and VL only
For B1, the binding result is recorded as “no binding (tested: FOI ≥10 = positive; 25 nM)”.

B2: mAb 291 (antibody, V domains shown)
VH: EVQLLESGGGLVQPGGSRRLSCAASGFTFSSYALSWVRQAPGKGLEWVSVINTRGDSTSYADSVKGRFTISRDNSKNTLYLQMNSLRAEDTAVYYCAKKYSYYYYYMDVWGKGTTVTVSS
VL: SYELTQPLSVSVALGQTARITCGGNNIGSKDVHWYQQKPGQAPVLVIYRDSNRPSGIPERFSGSNSGNTATLTISRAQAGDEADYYCQVWDSRTAVFGGGTQLTAL
notes: VH and VL only
With B2, the binding result is on record as “no binding (tested: FOI ≥10 = positive; 25 nM)”.

B3: mAb 302 (antibody, V domains shown)
VH: EGQLLESGGGLVQPGGSLRLSCAASGFTFSRYAMSWIRQAPGKGLEWVSVINGSGGDKNYADSVRGRFTISRDNSKNSLYLLMNGLRVEDTAIYFCAKKFSYYYYYMDVWGKGTTVTVSS
VL: SYELTQPLSVSVALGQTARITCGGNNIGGKDVHWYQQKPGQAPVLVIYRDSNRPSGIPERFSGSNSGNTATLTISRAQAGDEADYYCQVWDSRTAVFGGGTQLTAL
notes: VH and VL only
Consider B3, for which the binding result is “no binding (tested: FOI ≥10 = positive; 25 nM)”.

B4: mAb 307 (antibody, V domains shown)
VH: EVHLLESGGGMVQPGGSRRLSCAASGFSFRNSAMSWVRQAPGKGLEWVSVIDGRGTTSNYADSVKGRFTISRDNSKNTLYLQMNSLRAEDTAVYYCAKKYSYYYYYMDVWGKGTTVTVSS
VL: SYELTQPLSVSVALGQTARITCGGNNIGSKDVHWYQQKPGQAPVLVIYRDSNRPSGIPERFSGSNSGNTATLTISRAQAGDEADYYCQVWDSRTAVFGGGTHLTAL
notes: VH and VL only
In the case of B4, the binding result is on record as “no binding (tested: FOI ≥10 = positive; 25 nM)”.

B5: mAb 293 (antibody, V domains shown)
VH: EVQLLESGGDLVQPGGSLRLSCAASGFTFSRNAVSWVRQAPGRGLEWVSTISGRGDKTNYVDSVKGRFTISRDNSKNTLYLQMNSLRAEDTAVYYCTKMFSYYYYYMDVWGKGTTVTVSS
VL: SYELTQPLSVSVALGQTARITCGGNNIGSKDVHWYQQKPGQAPVLVIYRDSNRPSGIPERFSGSNSGNTATLTISRAQAGDEADYYCQVWDSSTAVFGGGTQLTAL
notes: VH and VL only
For B5, the binding result is given as “no binding (tested: FOI ≥10 = positive; 25 nM)”.

B6: mAb 308 (antibody, V domains shown)
VH: EVQLLESGGGSVQPGGSLRLSCAASGFTFSSYAMNWVRQAPGKGLEWISIISGGRRTGITYYAASVKGRFTISRDNSKNTLYLQMNSLRAEDTAVYYCAKMYNYYYYYIDVWGKGTTVTVSS
VL: SYELTQPLSVSVALGQTARITCGGNNIGSKDVHWYQQKPGQAPVLVIYRDSNRPSGIPERFSGSNSGNTATLTISRAQAGDEADYYCQVWDSNTAVFGGGTQLTAL
notes: VH and VL only
In the case of B6, the binding result is “no binding (tested: FOI ≥10 = positive; 25 nM)”.

B7: mAb 317 (antibody, V domains shown)
VH: EVQLLESGGGLVQPGGSLRLSCAASGFTFSSFAMSWVRQAPGKGLEWVSVISGNGDKKNYADSVKGRFTISRDNSKNTLYLQMNSLRAEDTAVYYCAKKYSYYYYYMDVWGKGTTVTVSS
VL: SYELTQPLSVSVALGQTARITCGGNNIGSKDVHWYQQKPGQAPVLVIYRDSNRPSGIPERFSGSNSGNTATLTISRAQAGDEADYYCQVWDSRTAVFGGGTQLTAL
notes: VH and VL only
In the case of B7, the binding result is “no binding (tested: FOI ≥10 = positive; 25 nM)”.

B8: mAb 309 (antibody, V domains shown)
VH: ELQLLESGGGLVQPGGSLRLSCAASGFTFSSYAMSWVRQAPGKGLEWVSVISGNGGNKNHADSVKGRFTISRDNSKNTLYLQMNSLRAEDTAVYYCAKKYSYYYYYMDVWGKGTTVTVSS
VL: SYELTQPLSVSVALGQTARITCGGNNIGSKDVHWYQQKPGQAPVLVIYRDSNRPSGIPERFSGSNSGNTATLTISRAQAGDEADYYCQVWDSRTAVFGGGTQLTAL
notes: VH and VL only
As to B8, the binding result is recorded as “no binding (tested: FOI ≥10 = positive; 25 nM)”.

B9: mAb 315 (antibody, V domains shown)
VH: EVQLLESGGGLVQPGGSRRLSCAASGFTFSSYAMSWVRQAPGKGLEWVSVINTRGDSTSYADSVKGRFTISRDNSKNTLYLQMNSLRAEDTAVYYCAKKYSYYYYYMDVWGKGTTVTVSS
VL: SYELTQPLSVSVALGQTARITCGGNNIGSKDVHWYQQKPGQAPVLVIYRDSNRPSGIPERFSGSNSGNTATLTISRAQAGDEADYYCQVWDSRTAVFGGGTQLTAL
notes: VH and VL only
In the case of B9, the binding result is “no binding (tested: FOI ≥10 = positive; 25 nM)”.

B10: mAb 298 (antibody, V domains shown)
VH: EGQLLESGGGLVQPGGSLRLSCAASGFTFSRYAMSWIRQAPGKGLEWVSVINGSGGDKNYADSVKGRFTISRDNSKNSLYLLMNGLRVEDTAIYFCAKKFSYYYYYMDVWGKGTTVTVSS
VL: SYELTQPLSVSVALGQTARITCGGNNIGGKDVHWYQQKPGQAPVLVIYRDSNRPSGIPERFSGSNSGNTATLTISRAQAGDEADYYCQVWDSRTAVFGGGTQLTAL
notes: VH and VL only
Turning to B10, the binding result is recorded as “no binding (tested: FOI ≥10 = positive; 25 nM)”.

B11: mAb 313 (antibody, V domains shown)
VH: EVQLLESGGGLVQPGGSLRLSCAASGFTFSSYAMSWVRQAPGKGLEWVSAITGSGRTTYFVDSVKGRFTISRDNSKNTLYLQMNSLRAEDTAVYYCAKKFSYYYYYMDVWGKGTTVTVSS
VL: SYELTQPLSVSVALGQTARITCGGNNIGSKDVHWYQQKPGQAPVLVIYRDSNRPSGIPERFSGSNSGNTATLTISRAQAGDEADYYCQVWDRKIAVFGGGTQLTAL
notes: VH and VL only
B11: the binding result is “no binding (tested: FOI ≥10 = positive; 25 nM)”.

B12: mAb 295 (antibody, V domains shown)
VH: EVQLLESGGGLVQPGGSLRLSCAASGITFSSYAMSWVRQAPGKGLEWVSTISGNGGTLYYTDSVKGRFTISRDNSKNTLYLQMNSLRAEDTAVYYCAKKYSYYYYYMDVWGKGTTVTVSS
VL: SYELTQPLSVSVALGQTARITCGGNNIGSKNVHWYQQKPGQAPVLVIYRDSNRPSGIPERFSGSNSGNTATLTISRAQAGDEADYYCQVWDSSTAVFGGGTQLTAL
notes: VH and VL only
For B12, the binding result is recorded as “no binding (tested: FOI ≥10 = positive; 25 nM)”.

B13: mAb 305 (antibody, V domains shown)
VH: EVQLLESGGGLVQPGGSLRLSCAASGFSFSSFALSWVRQAPGKGLEWVSVISGNGGNKNYADSVKGRFTISRDNSKNTLYLQMNSLRAEDTAVYYCAKKYSYYYYYMDVWGKGTTVTVSS
VL: SYELTQPLSVSVALGQTARITCGGNNIGGKDVHWYQQKPGQAPVLVIYRDSNRPSGIPERFSGSNSGNTATLTISRAQAGDEADYYCQVWDSRAAVFGGGTQLTAL
notes: VH and VL only
As for B13, the binding result is recorded as “no binding (tested: FOI ≥10 = positive; 25 nM)”.

B14: mAb 299 (antibody, V domains shown)
VH: EVQLLESGGGLVQPGGSRRLSCAASGFTFRSYAMSWVRQAPGKGLEWVSVISIRGDSTSYADSVKGRFTISRDNSKNTLYLQMNSLRAEDTAVYYCAKKYSYYYYYMDVWGKGTTVTVSS
VL: SYELTQPLSVSVALGQTARITCGGNNIGSKDVHWYQQKPGQAPVLVIYRDSNRPSGIPERFSGSNSGNTATLTISRAQAGDEADYYCQVWDSRTAVFGGGTQLTAL
notes: VH and VL only
B14: the binding result was “no binding (tested: FOI ≥10 = positive; 25 nM)”.
